The results in this text go back to article PMC4493999.

For the assay, the target named is anaphase-promoting complex/cyclosome (APC/C) complex (human (endogenous in HeLa)) (UniProt P30260). In words: co-IP.
Chain of UniProt P30260 (P30260 whole entry, looked up, one chain of several): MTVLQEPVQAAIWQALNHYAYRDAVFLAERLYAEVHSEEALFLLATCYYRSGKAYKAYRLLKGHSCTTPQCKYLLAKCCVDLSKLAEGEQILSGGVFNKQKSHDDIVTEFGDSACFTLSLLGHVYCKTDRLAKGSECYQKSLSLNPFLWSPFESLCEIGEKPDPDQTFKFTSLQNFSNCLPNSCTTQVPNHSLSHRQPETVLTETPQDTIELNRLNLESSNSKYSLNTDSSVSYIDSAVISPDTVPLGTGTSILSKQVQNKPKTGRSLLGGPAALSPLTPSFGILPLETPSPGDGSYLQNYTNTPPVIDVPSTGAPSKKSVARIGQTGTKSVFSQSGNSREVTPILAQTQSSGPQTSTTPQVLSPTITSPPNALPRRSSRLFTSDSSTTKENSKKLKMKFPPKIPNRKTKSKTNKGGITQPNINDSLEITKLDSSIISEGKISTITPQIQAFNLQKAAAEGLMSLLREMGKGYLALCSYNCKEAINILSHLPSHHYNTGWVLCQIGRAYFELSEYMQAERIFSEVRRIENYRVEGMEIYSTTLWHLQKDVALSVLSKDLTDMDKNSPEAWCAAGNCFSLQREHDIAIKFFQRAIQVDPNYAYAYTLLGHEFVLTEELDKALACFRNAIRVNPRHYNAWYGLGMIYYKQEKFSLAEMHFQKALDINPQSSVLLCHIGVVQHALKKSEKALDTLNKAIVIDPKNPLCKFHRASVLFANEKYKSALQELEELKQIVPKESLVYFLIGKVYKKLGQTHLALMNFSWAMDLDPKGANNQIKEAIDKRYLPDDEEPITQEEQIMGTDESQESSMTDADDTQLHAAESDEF

In turn, “HA-tagged human Cdh1 S40D (from UniProt Q9UM11 1-496) (natural protein)” gave an amount coprecipitated, percent of that of Cdh1 S40A of 20% and an amount coprecipitated, percent of that of wild-type Cdh1 of 30%.
